Results on four molecules are retold here after patent US20260176358A1 (JIANGSU HENGRUI PHARMACEUTICALS, published 2026).

The target in experiment [1] is T1, PACAP38 (UniProt P18509 132-169, biotinylated in the ELISAs).
T1 peptide (looked up): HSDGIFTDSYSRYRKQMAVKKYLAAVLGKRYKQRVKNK
In words: cell-based or functional assay.

Experiment [2] addresses CGRP. Kind of experiment: cell-based or functional assay.
Experiment [3] deals with T2, rat CGRP (rat, UniProt P01256 83-119).
T2 peptide (looked up): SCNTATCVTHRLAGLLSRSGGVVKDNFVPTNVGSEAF
In words: SPR, Biacore 8K, antibody captured on Protein A chip, 1:1 model. As to the method: A Protein A biosensor chip was used to affinity-capture IgG, and a molecule sample was then allowed to flow through the surface of the chip. Reaction signals were detected in real time using a Biacore 8K system to obtain association and dissociation curves. After the dissociation in each experimental cycle was complete, the biosensor chip was washed and regenerated 3 times with 50 mM NaOH. Data fitting was performed using a 1:1 model.
(Surface plasmon resonance follows binding to a sensor surface in real time, without labels.)

Experiment [4] addresses T3, PACAP27 (UniProt P18509 132-158, biotinylated in the ELISAs).
T3 peptide (looked up): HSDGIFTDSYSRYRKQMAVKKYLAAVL
In words: ELISA, antibody on coated anti-human Fc, biotinylated peptide. As to the method:
(§1) Plates were coated with 1 μg/mL anti-human Fc and blocked, and the antibodies, serially diluted, were added. […] The plates were incubated for 1 h and washed, and a horseradish peroxidase-labeled streptavidin secondary antibody was then added. After incubation, color development was performed.
A general note: ELISA stands for enzyme-linked immunosorbent assay.

For experiment [5], the target named is T1, PACAP38. Described as above. As to the method: as §1
Experiment [6] deals with T4, human CGRP (human, UniProt P06881 83-119).
T4 peptide (looked up): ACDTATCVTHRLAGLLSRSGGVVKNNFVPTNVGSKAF
Kind of experiment: SPR, Biacore 8K, 25 C, biotinylated antibody on SA chip, 1:1 model. As to the method: First, the test antibodies ([…] for the mAbs and 4 μg/mL for the diabodies), biotinylated (indicated by Biotin-), were each coupled onto an SA biosensor chip. Then samples of the antigen human CGRP were sequentially injected in ascending order for 180 s, followed by dissociation. After the test was finished, fitting was performed using a 1:1 binding model.

In experiment [7] the target is T1, PACAP38. In words: competition ELISA, biotinylated PACAP38 to coated VPAC2-Fc. As to the method: (§2) The plates were incubated for 1 h and washed, and a horseradish peroxidase-labeled streptavidin secondary antibody was then added. After incubation, color development was performed.
Experiment [8] concerns the target T3, PACAP27. In words: ELISA, biotinylated peptide on streptavidin plate. As to the method: (§3) In this test example, the abilities of the chimeric antibodies and humanized antibodies of C1 #, C9 #, C21 #, and C28 #to bind to human CGRP and rat CGRP were assessed using ELISAs. Plates were coated with […] human CGRP and rat CGRP, respectively, and blocked, and the antibodies, serially diluted, were then added. The plates were incubated for 1 h and washed, and a horseradish peroxidase-labeled anti-human Fc secondary antibody was then added. After incubation, color development was performed. […] The plates were incubated for 1 h and washed, and the antibodies, serially diluted, were then added. The plates were incubated for 1 h and washed, and a horseradish peroxidase-labeled streptavidin secondary antibody was then added. After incubation, color development was performed.

Experiment [9] addresses T1, PACAP38. Kind of experiment: ELISA, biotinylated peptide on streptavidin plate. As to the method:
as §3

Experiment [10] deals with T1, PACAP38. In words: competition ELISA, biotinylated PACAP38 to coated PAC1-Fc. As to the method:
as §2

Experiment [11] has as its target T5, VIP (UniProt P01282 125-152, biotinylated in the ELISA).
T5 construct: also called vasoactive intestinal peptide
T5 peptide (looked up): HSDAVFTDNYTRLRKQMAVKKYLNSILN
In words: ELISA, biotinylated VIP on streptavidin plate. How it is done: as §3

Experiment [12] has as its target T1, PACAP38. Kind of experiment: competition ELISA, biotinylated PACAP38 to coated VPAC1-Fc. How it is done: as §2

B1: CP-1 (bispecific antibody)
heavy: EVQLVESGGGLVQPGGSLRLSCAASGFAFNNYDMSWVRQAPGKGLEWVATITGGGSYTWYPDSVKGRFTISRDNAKNSLYLQMNSLRAEDTAVYYCARLTGYDQAGAMDYWGQGTTVTVSSASTKGPSVFPLAPSSKSTSGGTAALGCLVKDYFPEPVTVSWNSGALTSGVHTFPAVLQSSGLYSLSSVVTVPSSSLGTQTYICNVNHKPSNTKVDKKVEPKSCEVQLVQSGAEVKKPGASVKVSCKASGYTFTDYYMNWVRQAPGQCLEWIGDINPNQGGTNYNQKFKGRATLTVDKSASTAYMELSSLRSEDTAVYYCASIIIVPNYFDYWGQGTTVTVSSGGGGSGGGGSGGGGSDIQMTQSPSSLSASVGDRVTITCKASQNVDTNVAWFQQKPGKAPKSLIYSASYRYSGVPSRFSGSGSGTDFTLTISSLQPEDFATYYCQQYNNYPYTFGCGTKVEIKGGGDKTHTCPPCPAPELLGGPSVFLFPPKPKDTLYITREPEVTCVVVDVSHEDPEVKFNWYVDGVEVHNAKTKPREEQYNSTYRVVSVLTVLHQDWLNGKEYKCKVSNKALPAPIEKTISKAKGQPREPQVYTLPPSRDELTKNQVSLTCLVKGFYPSDIAVEWESNGQPENNYKTTPPVLDSDGSFFLYSKLTVDKSRWQQGNVFSCSVMHEALHNHYTQKSLSLSPGK
light: DIVLTQSPDSLAVSLGERATINCKASQSVDYDGDSYMTWYQQKPGQPPKLLIYAASHLDSGIPDRFSGSGSGTDFTLTISSLQAEDVAVYYCQQSNEDPWTFGGGTKVEIKRTVAAPSVFIFPPSDEQLKSGTASVVCLLNNFYPREAKVQWKVDNALQSGNSQESVTEQDSKDSTYSLSSTLTLSKADYEKHKVYACEVTHQGLSSPVTKSFNRGEC
notes: Format 2+2, anti-PACAP Fab (P14H2L3) and anti-CGRP scFv (C21H5L3), IgG1 (YTE) Fc; also called Biotin-CP-1
As to B1, the “IC50, inhibition of cAMP production in SH-SY5Y cells” value (shortened to “IC50, inhibition … in SH-SY5Y cells”) in experiment [1] came to 4.31 nM. Moreover, the “IC50, inhibition of cAMP production in SK-N-MC cells” value (shortened to “IC50, inhibition … in SK-N-MC cells”) in [2] worked out at 2.66 nM. The results for the Kd in [3] and in experiment [6] were 0.778 nM and 0.00715 nM, respectively. In addition, the koff came out at 0.00116 s⁻¹ in experiment [3] and 1.77e-05 s⁻¹ in [6]. The kon was 1.5e+06 M⁻¹ s⁻¹ in experiment [3] and 2.48e+06 M⁻¹ s⁻¹ in [6]. The EC50 in experiment [4] came to 0.28 nM; in [5], 0.15 nM.

B2: CP-3 (bispecific antibody, human IgG1, kappa)
heavy 1: EVQLVESGGGLVQPGGSLRLSCAASGFAFNNYDMSWVRQAPGKGLEWVATITGGGSYTWYPDSVKGRFTISRDNAKNSLYLQMNSLRAEDTAVYYCARLTGYDQAGAMDYWGQGTTVTVSSASTKGPSVFPLAPSSKSTSGGTAALGCLVKDYFPEPVTVSWNSGALTSGVHTFPAVLQSSGLYSLSSVVTVPSSSLGTQTYICNVNHKPSNTKVDKKVEPKSCDKTHTCPPCPAPELLGGPSVFLFPPKPKDTLYITREPEVTCVVVDVSHEDPEVKFNWYVDGVEVHNAKTKPREEQYNSTYRVVSVLTVLHQDWLNGKEYKCKVSNKALPAPIEKTISKAKGQPREPQVYTLPPCRDELTKNQVSLWCLVKGFYPSDIAVEWESNGQPENNYKTTPPVLDSDGSFFLYSKLTVDKSRWQQGNVFSCSVMHEALHNHYTQKSLSLSPGK
light 1: DIVLTQSPDSLAVSLGERATINCKASQSVDYDGDSYMTWYQQKPGQPPKLLIYAASHLDSGIPDRFSGSGSGTDFTLTISSLQAEDVAVYYCQQSNEDPWTFGGGTKVEIKRTVAAPSVFIFPPSDEQLKSGTASVVCLLNNFYPREAKVQWKVDNALQSGNSQESVTEQDSKDSTYSLSSTLTLSKADYEKHKVYACEVTHQGLSSPVTKSFNRGEC
heavy 2: EVQLVQSGAEVKKPGASVKVSCKASGYTFTDYYMNWVRQAPGQRLEWMGDINPNTGVTTYNQKFKGRVTITVDKSASTAYMELSSLRSEDTAVYYCASIIIVPDYFDYWGQGTTVTVSSGGGGSGIPPKIECLPIDISIDEGKVLTVASAFTGEPTPEVTWSTGGRKIHSQEQGRFHIENTDDSTTLTIKDVQKQDGGLYTLTLRNEFGSDSATVNIHIRSIDKTHTCPPCPAPELLGGPSVFLFPPKPKDTLYITREPEVTCVVVDVSHEDPEVKFNWYVDGVEVHNAKTKPREEQYNSTYRVVSVLTVLHQDWLNGKEYKCKVSNKALPAPIEKTISKAKGQPREPQVCTLPPSRDELTKNQVSLSCAVKGFYPSDIAVEWESNGQPENNYKTTPPVLDSDGSFFLVSKLTVDKSRWQQGNVFSCSVMHEALHNHYTQKSLSLSPGK
light 2: DIQMTQSPSSVSASVGDRVTITCKASQNVGSNVAWYQQKPGKSPKALIYSASYRYSGVPSRFSGSGSGTDFTLTISSLQPEDFATYYCQQYNSYPYTFGGGTKVEIKGGGGSSGAPRFLTRPKASVVSVGKDATLSCQIVGNPFPQVSWEKDKQPVTAGVRFRLAQDGDLYRLKILDLQLSDSGQYVCRARNAHGEAFACLGLQVDAEA
notes: Format 1+1, anti-PACAP Fab (P14H2L3) and anti-CGRP Titin/Obscurin Fab (C28H6L1), knob-into-hole IgG1 (YTE) Fc; also called Biotin-CP-3
As for B2, in experiment [1], the “IC50, inhibition … in SH-SY5Y cells” value was 11 nM. The “IC50, inhibition … in SK-N-MC cells” value in experiment [2] is 5.79 nM. In [3], this molecule displayed a Kd of 0.0897 nM, a koff of 0.000301 s⁻¹ and a kon of 3.35e+06 M⁻¹ s⁻¹. In [4], the EC50 amounted to 0.33 nM. The molecule also yielded an EC50 in experiment [5] of 0.22 nM. In [6], the Kd was determined as 0.00764 nM, the koff was found to be 3.31e-05 s⁻¹ and the kon came out at 4.34e+06 M⁻¹ s⁻¹.

B3: CP-2 (bispecific antibody)
heavy: EVQLVESGGGLVQPGGSLRLSCAASGFAFNNYDMSWVRQAPGKGLEWVATITGGGSYTWYPDSVKGRFTISRDNAKNSLYLQMNSLRAEDTAVYYCARLTGYDQAGAMDYWGQGTTVTVSSASTKGPSVFPLAPSSKSTSGGTAALGCLVKDYFPEPVTVSWNSGALTSGVHTFPAVLQSSGLYSLSSVVTVPSSSLGTQTYICNVNHKPSNTKVDKKVEPKSCEVQLVQSGAEVKKPGASVKVSCKASGYTFTDYYMNWVRQAPGQCLEWMGDINPNTGVTTYNQKFKGRVTITVDKSASTAYMELSSLRSEDTAVYYCASIIIVPDYFDYWGQGTTVTVSSGGGGSGGGGSGGGGSDIQMTQSPSSVSASVGDRVTITCKASQNVGSNVAWYQQKPGKSPKALIYSASYRYSGVPSRFSGSGSGTDFTLTISSLQPEDFATYYCQQYNSYPYTFGCGTKVEIKGGGDKTHTCPPCPAPELLGGPSVFLFPPKPKDTLYITREPEVTCVVVDVSHEDPEVKFNWYVDGVEVHNAKTKPREEQYNSTYRVVSVLTVLHQDWLNGKEYKCKVSNKALPAPIEKTISKAKGQPREPQVYTLPPSRDELTKNQVSLTCLVKGFYPSDIAVEWESNGQPENNYKTTPPVLDSDGSFFLYSKLTVDKSRWQQGNVFSCSVMHEALHNHYTQKSLSLSPGK
light: DIVLTQSPDSLAVSLGERATINCKASQSVDYDGDSYMTWYQQKPGQPPKLLIYAASHLDSGIPDRFSGSGSGTDFTLTISSLQAEDVAVYYCQQSNEDPWTFGGGTKVEIKRTVAAPSVFIFPPSDEQLKSGTASVVCLLNNFYPREAKVQWKVDNALQSGNSQESVTEQDSKDSTYSLSSTLTLSKADYEKHKVYACEVTHQGLSSPVTKSFNRGEC
notes: Format 2+2, anti-PACAP Fab (P14H2L3) and anti-CGRP scFv (C28H8L2), IgG1 (YTE) Fc; also called Biotin-CP-2
Turning to B3, the “IC50, inhibition … in SH-SY5Y cells” value in experiment [1] is 1.92 nM. Moreover, the “IC50, inhibition … in SK-N-MC cells” value in experiment [2] was found to be 2.03 nM. In addition, the Kd is 0.358 nM in experiment [3] and 0.0117 nM in [6]. Moreover, the koff in experiment [3] turned out to be 0.000743 s⁻¹; in [6], 2.35e-05 s⁻¹. The kon in experiment [3] was found to be 2.07e+06 M⁻¹ s⁻¹; in experiment [6] it was 2e+06 M⁻¹ s⁻¹. For the same molecule, the EC50 in experiment [4] worked out at 0.16 nM; in [5] it was 0.1 nM.

B4: P14H1L1 (antibody, human IgG1, kappa, V domains shown)
VH: EVQLVESGGGLVKPGGSLRLSCAASGFAFNNYDMSWVRQAPGKGLEWVATITGGGSYTWYPDSVKGRFTISRDNAKNSLYLQMNSLRAEDTAVYYCARLTGYDQAGAMDYWGQGTTVTVSS
VL: DIVMTQSPDSLAVSLGERATINCKASQSVDYDGDSYMTWYQQKPGQPPKLLIYAASNLDSGVPDRFSGSGSGTDFTLTISSLQAEDVAVYYCQQSNEDPWTFGGGTKVEIKR
Consider B4, for which the figures for the IC50 in [7], in experiment [10] and in [12] were 0.21 nM, 0.51 nM and 0.2 nM, respectively. In addition, the EC50 in experiment [8] came to 0.19 nM; in experiment [9], 0.11 nM. Further, the binding result in experiment [11] is listed as “no binding”.

As a reminder, the Kd is a measure of binding affinity in units of concentration. The koff is a measure of how fast the partners let go of each other. A higher koff goes with a short-lived complex. Broadly, the kon is a measure of how fast the partners come together. In general, EC50 refers to the concentration needed to bring the measured effect to its halfway point. As a reminder, the IC50 is the concentration that gives 50% inhibition. Higher therefore signals a need for much substance.
